Measured values reported in patent US20220127585A1 (UNIVERSITY OF SOUTH CAROLINA, published 2022).
Bridges are numbered along the chain shown (N, C = ends). Where no end group is shown, it is not given here. [ ]: non-standard residue; d: D form. The star is where a group is joined. C4 = C-terminal cap: phenethyl group with a meta isopentyloxy group, CC(C)CCOc1cccc(CCN*)c1; NMeR = CN[C@@H](CCCNC(=N)N)C(=O)O; PhAc = O=C(Cc1ccccc1)*

B1: SEQ ID NO: 63 (TRHVNI) with N-Cap N2 and C-Cap C4 (peptide)
peptide: PhAc-TRHVNI-C4
SMILES: CC[C@H](C)[C@H](NC(=O)[C@H](CC(N)=O)NC(=O)[C@@H](NC(=O)[C@H](Cc1c[nH]cn1)NC(=O)[C@H](CCCNC(=N)N)NC(=O)[C@@H](NC(=O)Cc1ccccc1)[C@@H](C)O)C(C)C)C(=O)NCCc1cccc(OCCC(C)C)c1

Key:
B-Raf kinase [1] = molecular target: T1, B-Raf kinase (UniProt P15056 448-723, limits assumed); assay: binding affinity, Table 3 (method not given; the Methods describe fluorescence titration)
T1 sequence (P15056 448-723 limits assumed): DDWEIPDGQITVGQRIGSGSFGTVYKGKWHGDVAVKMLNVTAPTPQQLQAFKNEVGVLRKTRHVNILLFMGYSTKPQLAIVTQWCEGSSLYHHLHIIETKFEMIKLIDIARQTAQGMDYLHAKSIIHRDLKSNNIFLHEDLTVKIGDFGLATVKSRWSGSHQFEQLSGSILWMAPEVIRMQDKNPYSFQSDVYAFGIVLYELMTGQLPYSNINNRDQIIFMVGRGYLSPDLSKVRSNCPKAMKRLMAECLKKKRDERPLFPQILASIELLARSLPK

B-Raf kinase [2] = molecular target: T1, B-Raf kinase; assay: intrinsic tryptophan fluorescence (ITF), column head 'Kd (ITF) (µM)'
Description: Fluorescence intensity was measured with a Hitachi F-2500 Fluorescence Spectrophotometer. A 1.6 mL of protein solution (0.5 μM) was placed in a cuvette and equilibrated at 15° C. for 1 hour. After equilibration, small increments (2-15 μL) of the ligand solution were injected in the cuvette. The experiments were performed in 20 mM HEPES buffer (pH 7.5), 10 mM MgCl2, 30 mM NaCl. […] The slits were set at 10 and 10 nm in the excitation and emission respectively. To determine dilution effect of B-Raf (due to ligand addition) and any fluorescence effect by unbound ligand, a blank sample containing Trp with the same fluorescence signal was titrated with ligand additions as described above. The sample absorbance was kept below 0.1 to minimize the inner filter effect.

B-Raf kinase [3] = molecular target: T1, B-Raf kinase; assay: direct binding affinity (Kd; values in FIG. 14)

Binder	Kd (B-Raf kinase [1])	Kd (B-Raf kinase [2])	fold increase in direct binding affinity compared to SEQ ID NO: 1 (B-Raf kinase [3])
KRHVAE (lactam 1-6) [SEQ ID NO: 48 (KRHVAE)]	300 nM		
B1		280 nM	
K[NMeR][dA]PAE (also: cyclic, closure not given here) [SEQ ID NO: 64 (K-MeR-a-PAE)]		17 nM	225 fold
